Laboratory results taken from US20110182905A1 (published 2011).
Positions count from the first letter of the chain named. Values joined by “and” are separate entries in the source; they are usually repeats but may differ in a detail not shown here. Equal entries are not always repeated. Each block holds one binder with its values, some of them ahead of it.

Columns and labels:
[1] = target: T1, purified hGM-CSF (Biomol #2514, expressed in E. coli) (human, UniProt P04141 18-144); assay: cell-based or functional assay
rhesus GM-CSF [2] = target: rhesus GM-CSF (rhesus); assay: cell-based or functional assay
[3] = target: T1, purified hGM-CSF (Biomol #2514, …); assay: cell-based or functional assay; remark: listed apart in the source
rhesus GM-CSF [4] = target: rhesus GM-CSF (rhesus); assay: cell-based or functional assay; remark: listed apart in the source
[5] = target: T2, recombinant hGM-CSF derived from yeast (Leukine, Berlex) (human, UniProt P04141 18-144); assay: SPR (Biacore), antibody captured on protein G, hGM-CSF injected
T2 construct: Bought protein; also called yeast hGM-CSF (Leukine); yeast rhGM-CSF
Experimental: (§1) To calculate affinity constants for recombinant hGM-CSF binding to anti-hGM-CSF monoclonal antibodies, surface plasmon resonance (SPR) was performed on a Biacore System™ (FIG. 2).
(§2) In the method to analyze the interaction between antibodies and antigens, the purified antibodies were captured on a sensor chip via interaction with protein G immobilized to sensor chip surface, and then recombinant antigens were injected to the sensor chip. Purified antibodies were used and recombinant hGM-CSF was used as an antigen.

[6] = target: T3, recombinant hGM-CSF derived from E. coli (Peprotech) (human, UniProt P04141 18-144); assay: as above
T3 construct: Bought protein; also called E. coli hGM-CSF (Peprotech); E. coli rhGM-CSF
Experimental: as §1, §2

rhesus GM-CSF [7] = target: T4, rhesus GM-CSF (rhesus); assay: Biacore, antibody on mouse anti-human chip, soluble rhesus GM-CSF
T4 construct: also called rrGM-CSF (derived from HEK cells); recombinant rhesus GM-CSF
Text: (§3) Mouse anti-human Biacore chips (GE Healthcare) are used to immobilize each of the antibodies and soluble commercially available purified GM-CSF (Biomol) is allowed to bind. The hGM-CSF used in these experiments is the same as that used in the bioassays described below.
The rhesus GM-CSF sequence is present in the public databases (e.g., GenBank Accession No NP_{—}001028121) and is used to design an expression clone as an Fc fusion protein. Protease cleavage sites are introduced to allow release of untagged rhesus GM-CSF protein.

marmoset GM-CSF = target: T5, marmoset GM-CSF (marmoset); assay: Biacore, antibody on mouse anti-human chip, soluble marmoset GM-CSF
T5 construct: also called rmGM-CSF (derived from HEK cells); recombinant marmoset GM-CSF
Text: as §3
A marmoset GM-CSF expression clone (e.g., GenBank Accession No. B0KWQ4 with Methionine at position 53 and Proline at position 109) similar to the rhesus GM-CSF expression clone described above is generated.

[8] = target: T1, purified hGM-CSF (Biomol #2514, …); assay: Biacore, antibody on mouse anti-human chip, soluble hGM-CSF (Biomol)
Text: as §3

[9] = target: T1, purified hGM-CSF (Biomol #2514, …); assay: cell-based or functional assay; remark: listed apart in the source
[10] = target: T1, purified hGM-CSF (Biomol #2514, …); assay: own Biacore KD of EV1018 set against the 7 pM cited for MOR04357-Fab from WO2006/122797

T1 sequence (P04141 18-144 limits assumed): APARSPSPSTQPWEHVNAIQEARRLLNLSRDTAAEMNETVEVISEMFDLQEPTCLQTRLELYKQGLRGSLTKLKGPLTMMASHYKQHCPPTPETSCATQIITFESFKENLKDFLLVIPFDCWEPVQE
T3 sequence (P04141 18-144 limits assumed): as above
T2 sequence (P04141 18-144 limits assumed): as above

B2: EV1018 (antibody, human IgG1, lambda)
heavy: not shown
light: QSALTQETSVSGTVGQKVTLSCIGNNNNIGSHAVGWYQQISRGAPKMVLFGRSPPSGVPDRFSGSKSGTTASLIISGLQPEDEADYYCSTWDSSLSAVVFGGGTKLTVLRQPKAAPSVTLFPPSSEELQANKATLVCLISDFYPGAVTVAWKADSSPVKAGVETTTPSKQSNNKYAASSYLSLTPEQWKSHRSYSCQVTHEGSTVEKTVAPTECS
notes: also called wild-type EV1018; WT EV1018
IC50 in TF-1 proliferation assay [1]: 2.3 ng/ml and 15 pM
IC50 in TF-1 proliferation assay (rhesus GM-CSF [2]): 1.7 ng/ml and 11 pM
Ratio: Reference antibody (BVD2-21C11) to antibody of interest, TF-1 assay [9]: 413 ratio
IC50 in U937 IL-8 secretion assay [3]: 0.9 ng/ml and 6 pM
IC50 in U937 IL-8 secretion assay (rhesus GM-CSF [4]): 0.8 ng/ml and 5.6 pM
Kd [5]: 0.23 nM
Kd [6]: 0.15 nM
Kd (rhesus GM-CSF [7]): 0.381 nM
Kd (marmoset GM-CSF): 2.1 nM
Kd [8]: 0.112 nM
times less binding than MOR04357 [10]: ~16 fold

B3: EV1018 variant 1 (antibody, human IgG1, lambda, L234A L235A)
heavy: not shown
light: B2 light with R110G, A153G
IC50 in TF-1 proliferation assay [1]: 0.032 nM

Next, values leading:

IC50 in TF-1 proliferation assay [1]: 5.7 ng/ml and 38 pM
IC50 in TF-1 proliferation assay (rhesus GM-CSF [2]): 2.8 ng/ml and 19 pM
IC50 in U937 IL-8 secretion assay [3]: 4.7 ng/ml and 31.3 pM
IC50 in U937 IL-8 secretion assay (rhesus GM-CSF [4]): 2.4 ng/ml and 16 pM
Kd [5]: 0.36 nM
Kd [6]: 0.15 nM
Kd (rhesus GM-CSF [7]): 0.739 nM and 0.543 nM
Kd (marmoset GM-CSF): 1.4 nM
Kd [8]: 0.152 nM
B1: EV1019 (antibody, human IgG1, lambda, V domains shown)
VH: QAQLVESGGGVVKPGGSLRLSCISSKFTFSSHAMHWVRQAPGKGLEWVAVIWHDGSKKYYADSVKGRFSVSRDNSKNTLFLQMDSLRAEDTAVYFCGKEWVGGTCDSWGQGTLVIVSS
VL: QPALTQEASVSGTVGQTVTLLCSGNSSNIGSYAVGWYQQISRGAPKIVVFGKSPASGIPDRFSGSKSGTTASLLVSGLQPEDEADYYCSTWDSRLSAVLFGGGTKLTVLR
notes: Fully human IgG1 lambda; also called EV1019 Batch 1; EV1019 Batch 2

IC50 in TF-1 proliferation assay [1]: 0.0333 nM
B4: EV1018 variant 2 (antibody, human IgG1, lambda, L234A L235A, V domains shown)
VH: QVELVESGGGMVQPGMPLRLSCVASGFTFSSYGMHWVRQAPGKGLEWVALTYHHGNRKFYADSVRGRFTISRDNSKNTLYLQMTSLRAEDTAVYFCARESMGAINDNWGQGTLVIVSS
VL: QSALTQETSVSGTVGQKVTLSCIGNNNNIGSHAVGWYQQISRGAPKMVLFGRSPPSGVPDRFSGSKSGTTASLIISGLQPEDEADYYCSTWDSSLSAVVFGGGTKLTVLG
